Experimental data as given in the supplement of paper PMC10126150.
± gives the standard deviation of the averaged measurements.

What follows are sequences tested on ATP (assay: switch fluorescence ratio, 500 uM ATP over buffer (Cy3 cluster intensity, sum of 5 cycles each) (fold (ratio)); higher = stronger signal-on switching upon ATP binding; sequences stand for … in TCGTCGGCAGCGTCAGATGTGTATAAGAGACAGTTTTTTTTTTTTTTTTTTTTTTTTT…TC). Details: aptamer strand: ATP DNA aptamer (quencher-CACCTGGGGGAGTATTGCGGAGGAAGG + anchor), 100 nM annealed; ATP concentration: 500 uM.
Procedure, shortened: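 Between each of five buffer/ATP cycles, the flow-cell was stripped with NaOH and re-annealed. Each cycle imaged Cy3-labelled switching-strand clusters, annealed to 100 nM quencher-labelled ATP aptamer on a modified Illumina MiSeq flow-cell, first in selection buffer and then after 15 min with 500 uM ATP at 22 °C. The fluorescence ratio is summed target-cycle over summed buffer-cycle Cy3 intensity per cluster, averaged per switch-domain sequence, with clusters outside 100-1000 RFU excluded.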
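Further: ATP exposure 15 min at 22 °C before imaging.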

Sequence | switch fluorescence ratio
ACTGCCTTCA | 1.52 ± 0.12
AATGTGAATG | 0.992 ± 0.021
CATCTGATTA | 0.98832 ± 0.00039
AGAAAATAGT | 1.03 ± 0.032
GAGGTTGTTT | 0.977 ± 0.02
ATGTTTAGGG | 1.01 ± 0.042
AGCAGGGCTT | 1.04 ± 0.05
GCCTTAGTGA | 0.9959 ± 0.0046
GGGTGCCAGT | 0.963 ± 0.011
TTATCGAGTT | 1.03 ± 0.015
GTCGTACGTT | 1.06 ± 0.025
ATAAAAAGCA | 0.995 ± 0.04
TTTATTTTGG | 0.995 ± 0.053
GGTAGGTTGC | 1.03 ± 0.013
TTTTGGTTTC | 1.05 ± 0.11
GAGTATCTAG | 0.986 ± 0.038
TACGGAAGGT | 1.06 ± 0.034
AATACCGTTT | 1.05 ± 0.03
CGGAAGTTCG | 0.9774 ± 0.0048
TCTGTTTTTT | 0.989 ± 0.01
CAGGGGTGGC | 0.9529 ± 0.0021
GGGGGTACAC | 1.01 ± 0.025
CCGGGGGCTA | 2.69 ± 1.9
TCTGGGGGT | 0.949 ± 0.02
GACGCGGAAC | 5.48 ± 0.37

Sequence | switch fluorescence ratio
TGGCGGGGGG | 0.994 ± 0.035
GTTGATGGGA | 0.982 ± 0.03
CTAGGGCGCC | 0.975 ± 0.012
TTTGGGTTGA | 1.03 ± 0.017
GTATTTTTGG | 0.972 ± 0.03
TTATTAAACG | 1.015 ± 0.0029
CCTGGGTCTG | 1.001 ± 0.006
TCATAATGAT | 1.005 ± 0.0032
GCGTGGAGGG | 1.013 ± 0.0029
CTTTATAGGA | 0.9944 ± 0.0056
CAAATAAGTC | 0.998 ± 0.013
TATAGGTAAT | 1.03 ± 0.011
GGGGTGAGGG | 0.971 ± 0.032
AGTCTGAGCG | 1.03 ± 0.024
GTTTGCAAGA | 1.01 ± 0.028
TAAGGAAAGA | 1.08 ± 0.12
TACCGGGCTT | 0.978 ± 0.02
TCTCTGTCTC | 1.12 ± 0.097
TGTGTTTCTG | 1.02 ± 0.019
CCTATGGCGG | 1.07 ± 0.017
AGGTGGCTAG | 1.026 ± 0.0052
TGAGGAAAGA | 0.988 ± 0.035
CTTATTTCGT | 1.001 ± 0.0018
CATCGGGGGG | 1 ± 0.02
TAAACTACAT | 1.006 ± 0.005

Sequence | switch fluorescence ratio
TTTTGGTTGT | 1.01 ± 0.029
GAAGGGGTAC | 1.16 ± 0.15
ATAGGTGGTT | 0.994 ± 0.019
CGGATCATCA | 1 ± 0.021
TGTAGTGTTT | 1.03 ± 0.044
AAAAAGTTGG | 1.005 ± 0.0099
GACGCAGGGT | 1.34 ± 0.25
CTTTGGGGCG | 1.01 ± 0.044
TTAGGTCGGT | 1.01 ± 0.0094
TAACGGTGTG | 0.962 ± 0.017
TTATCGGGTT | 0.973 ± 0.036
CATTTAGGGC | 1.02 ± 0.054
CTGCAGGGGA | 1.05 ± 0.048
AGCTGGTGGA | 1.02 ± 0.024
TACGGCTTTT | 1.01 ± 0.0062
GATTGATGTG | 0.995 ± 0.037
GATTGGGGGT | 0.982 ± 0.03
AGAGTCTATC | 0.972 ± 0.044
TTCATATTG | 0.9923 ± 0.0019
TAGGTAGGGT | 1.04 ± 0.073
CTGCAGATCG | 1.02 ± 0.06
GGCCTTTTGA | 0.997 ± 0.015
AGCGTCTCCG | 1.024 ± 0.006
GATGACAGTG | 0.969 ± 0.083
TGGTGGTGGG | 1.02 ± 0.018

Sequence | switch fluorescence ratio
TTGTTTGGGT | 0.984 ± 0.014
CTTTAAGGCA | 0.981 ± 0.017
AAAATATTTG | 0.964 ± 0.011
TTTACGGTCA | 1.04 ± 0.039
CGTATGAAGA | 1.02 ± 0.016
CGGGATTATC | 1.01 ± 0.021
TGGACCAGTT | 1.008 ± 0.0033
TTGGTAGCTA | 0.9889 ± 0.0098
CCGGGTCTTT | 1.002 ± 0.0064
CAGGGAGACG | 1.12 ± 0.047
TTGGTGTTGT | 0.989 ± 0.027
GGGAGGGGG | 0.965 ± 0.045
GGAGTGCCAG | 1 ± 0.027
GCCAAAGACA | 0.9573 ± 0.0053
TCCTAGGTTT | 1 ± 0.015
AAATTTGCGT | 0.987 ± 0.02
CTTGAGCAGG | 1.2 ± 0.038
CTTTGGATTG | 0.99917 ± 0.00068
TTTCGATTAC | 1.07 ± 0.018
ATTTATAGGG | 0.982 ± 0.014
TCGAGGTAGA | 1.01 ± 0.05
ATAATTTAGC | 0.961 ± 0.02
AGGGCGGGGC | 0.944 ± 0.061
CAAAATTGGG | 0.956 ± 0.013
GCGGGAAAGT | 0.9568 ± 0.009
